Reference: patent US20190202925A1 (OPI VI IP HOLDCO, published 2019)

Experiments:
[1] = target: T1, monomeric human TNFR2 extracellular domain (human, UniProt P20333 23-257); assay: BLI (Octet Red 96), Human TNFR2 Kd (1-1)
T1 construct: extracellular domain; Analyte in the Octet experiments; also called human TNFR2 ECD
T1 sequence (looked up): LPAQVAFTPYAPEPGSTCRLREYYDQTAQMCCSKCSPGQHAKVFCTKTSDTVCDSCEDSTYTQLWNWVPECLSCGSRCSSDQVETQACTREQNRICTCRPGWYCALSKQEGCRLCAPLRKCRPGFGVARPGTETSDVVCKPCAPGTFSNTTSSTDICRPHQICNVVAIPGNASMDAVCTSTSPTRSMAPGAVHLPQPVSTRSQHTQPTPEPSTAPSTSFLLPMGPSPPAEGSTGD

soluble human TNFR2 [2] = target: T2, soluble human TNFR2 (human, UniProt P20333 23-257); assay: competition ELISA (FIG. 2), plate-bound soluble human TNFR2, constant biotinylated TNFα as competitor; unit from paragraph 202 (IC50 values are reported in nM)
T2 construct: also called soluble TNFR2
T2 sequence (looked up): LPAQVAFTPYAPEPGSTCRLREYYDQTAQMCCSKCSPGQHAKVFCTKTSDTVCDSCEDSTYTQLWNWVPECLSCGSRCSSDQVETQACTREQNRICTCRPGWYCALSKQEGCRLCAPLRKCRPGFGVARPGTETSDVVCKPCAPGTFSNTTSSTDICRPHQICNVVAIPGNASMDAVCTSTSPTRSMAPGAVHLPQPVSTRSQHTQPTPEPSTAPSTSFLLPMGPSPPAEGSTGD
Text: (§1) Soluble human TNFR2 was coated on Nunc-Immuno™ plates. […] IC₅₀ values are reported in nM.

[3] = target: T1, monomeric human TNFR2 extracellular …; assay: BLI (Octet Red 96), antibody captured on Fc biosensor, monomeric TNFR2 ECD in solution, 1:1 model
Experimental: Analysis of binding to the human and cynomolgus TNFR2 ECD was performed using an Octet Red 96 Instrument™ (ForteBio). […] The experiments were performed using five steps: (1) baseline acquisition (60 s); (2) antibody loading on to anti-human or anti-mouse Fc biosensors (120 s); (3) second baseline acquisition (60 s); (4) association of interacting monomeric human or cynomolgus TNFR2 ECD protein for kₒₙ measurement (120 s); and (5) dissociation of interacting monomeric human or cynomolgus TNFR2 ECD for koff measurement (240-3600 s).
The interacting monomeric human or cynomolgus ECD was used at 5-6 concentrations of a 3-fold concentration series. The data were analyzed using Octet Data Analysis Software 9.0™ (ForteBio) and fit to the 1:1 binding model. The equilibrium dissociation constants (Kd) were calculated by the ratio of […].

soluble human TNFR2 [4] = target: T2, soluble human TNFR2; assay: competition ELISA (FIG. 1), plate-bound soluble human TNFR2, constant biotinylated TNFα as competitor
Text: as §1

B1: SBT-004 (antibody, V domains shown)
VH: EVQLQQSGPEVGRPGSSVKISCKASGYTFTDYIMHWVKQSPGQGLEWIGWVDPEYGSTDYAEKFKKKATLTADTSSNTAYIQLSSLTSEDTATYFCARDDGSYSPFDYWGQGVMVTVSS
VL: DIQMTQSPPSLSASLGDKVTITCQASQNINKYIAWYQQKPGKAPRLLIRYTSTLESGTPSRFSGSGSGRDYSFSISNVESEDIASYYCLQYVNLLTFGAGTKLEIK
notes: Parental rat antibody; also called rat SBT-004
Kd [1]: 1.1 nM | IC50 (soluble human TNFR2 [2]): 6.59 nM | Kd [3]: 1.8 nM | IC50 (soluble human TNFR2 [4]): 7.88 nM
